For one sequence, Kd results are on record in PMC12439145.

pKd: −log10 of the molar value.

Common to all, as to assay: flow cytometry
Holding throughout (conditions): apparent Kd on cells; SPR at 25 C, His-KIT on CM5 chip, 50 mM NaOH regeneration; flow cytometry with 250 nM Cy5-aptamer in binding buffer with 1 mg/ml BSA and 1 mM yeast tRNA; salt …

Data set [1] has as its target KIT on GIST-430 cells (human (GIST-430)) (UniProt P10721).
Data set [2] deals with KIT on GIST-430/654 cells (human (GIST-430/654)) (UniProt P10721).
Chain of KIT on GIST-430/654 cells (human (GIST-430/654)) (P10721 26-976): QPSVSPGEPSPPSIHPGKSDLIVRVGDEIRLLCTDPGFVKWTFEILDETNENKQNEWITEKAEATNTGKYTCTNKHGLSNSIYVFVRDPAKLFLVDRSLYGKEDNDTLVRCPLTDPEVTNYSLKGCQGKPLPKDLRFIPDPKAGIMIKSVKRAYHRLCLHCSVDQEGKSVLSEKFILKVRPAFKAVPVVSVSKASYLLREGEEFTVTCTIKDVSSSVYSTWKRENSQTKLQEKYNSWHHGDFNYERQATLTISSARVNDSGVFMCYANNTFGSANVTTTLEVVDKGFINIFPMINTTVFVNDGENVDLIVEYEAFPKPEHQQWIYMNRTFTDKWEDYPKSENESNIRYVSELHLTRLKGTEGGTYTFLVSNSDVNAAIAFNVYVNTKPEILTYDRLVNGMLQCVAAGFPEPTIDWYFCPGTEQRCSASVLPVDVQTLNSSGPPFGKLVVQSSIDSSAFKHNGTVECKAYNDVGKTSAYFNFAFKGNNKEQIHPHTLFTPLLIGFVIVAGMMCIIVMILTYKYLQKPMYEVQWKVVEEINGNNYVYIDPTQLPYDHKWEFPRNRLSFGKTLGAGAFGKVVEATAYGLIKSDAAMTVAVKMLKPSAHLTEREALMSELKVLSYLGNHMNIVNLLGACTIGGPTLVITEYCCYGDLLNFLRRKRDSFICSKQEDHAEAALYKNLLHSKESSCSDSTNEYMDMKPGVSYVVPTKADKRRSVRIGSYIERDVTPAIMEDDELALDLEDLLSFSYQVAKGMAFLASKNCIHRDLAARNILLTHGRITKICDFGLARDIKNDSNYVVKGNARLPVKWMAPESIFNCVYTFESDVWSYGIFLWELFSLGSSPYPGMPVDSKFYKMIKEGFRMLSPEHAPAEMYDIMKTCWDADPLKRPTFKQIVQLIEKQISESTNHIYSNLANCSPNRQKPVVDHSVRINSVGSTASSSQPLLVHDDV
The target in data set [3] is KIT on GIST-T1 cells (human (GIST-T1)) (UniProt P10721).
Chain of KIT on GIST-T1 cells (human (GIST-T1)) (P10721 26-976): as above

Chain of KIT on GIST-430 cells (human (GIST-430)) (P10721 26-976): as above

Take “ATTCAAGGGGCCGGGGCAAGGGGGGGGTACCGTGGTAGGACATAGT [KIT-d]”: the figures for the negative logarithm of the Kd (pKd) in data set [1], in data set [2] and in data set [3] were 7.38, 6.96 and 7.12, respectively.
